Source: the supplement of paper PMC10567573

B1: ZNF207 (parent)
chain: FPSAGQAQAAVQGPVGTDFKPLNS

Variants of: B1
Assay: protein stability index of a GFP-peptide fusion (GPS, HEK-293T) (PSI 1-6); higher = more stable
Conditions: c terminus: a fixed tail appended
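Note: lentivirally expressed fusions sorted by FACS into six bins by GFP to DsRed ratio, PSI derived from sequencing read proportions per bin multiplied by bin number.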

Variant	protein stability index
FPSAGQAQAAVQGPVGSDFKPLNS	3.88
FPSAGQAQAAVQGPVGRDFKPLNS	3.19
FPSAGQAQAAVQGPVGGDFKPLNS	3.78
FPSAGQAQAAVQGPVGLDFKPLNS	2.84
FPSAGQAQAAVQGPVGQDFKPLNS	4.12
FPSAGQAQAAVQGPVGHDFKPLNS	3.26
FPSAGQAQAAVQGPVGYDFKPLNS	2.85
FPSAGQAQAAVQGPVGMDFKPLNS	3.03
FPSAGQAQAAVQGPVGPDFKPLNS	3.3
FPSAGQAQAAVQGPVGDDFKPLNS	4.02
FPSAGQAQAAVQGPVGFDFKPLNS	3.05
FPSAGQAQAAVQGPVGADFKPLNS	3.03
FPSAGQAQAAVQGPVGWDFKPLNS	2.25
FPSAGQAQAAVQGPVGVDFKPLNS	2.81
FPSAGQAQAAVQGPVGEDFKPLNS	3.9
FPSAGQAQAAVQGPVGNDFKPLNS	3.65
FPSAGQAQAAVQGPVGCDFKPLNS	3.12
FPSAGQAQAAVQGPVGKDFKPLNS	3.27
FPSAGQAQAAVQGPVGIDFKPLNS	3.03
FPSAGQAQAAVQGPVGTDFKPLPS	3.03
FPSAGQAQAAVQGPVGTDFKPLGS	3.07
FPSAGQAQAAVQGPVGTDFKPLVS	2.93
FPSAGQAQAAVQGPVGTDFKPLIS	3.15
FPSAGQAQAAVQGPVGTDFKPLSS	3.25

Variant	protein stability index
FPSAGQAQAAVQGPVGTDFKPLTS	3.45
FPSAGQAQAAVQGPVGTDFKPLFS	2.41
FPSAGQAQAAVQGPVGTDFKPLMS	3.17
FPSAGQAQAAVQGPVGTDFKPLES	3.44
FPSAGQAQAAVQGPVGTDFKPLWS	2.01
FPSAGQAQAAVQGPVGTDFKPLRS	3.91
FPSAGQAQAAVQGPVGTDFKPLQS	3.22
FPSAGQAQAAVQGPVGTDFKPLDS	3.55
FPSAGQAQAAVQGPVGTDFKPLYS	2.68
FPSAGQAQAAVQGPVGTDFKPLAS	2.88
FPSAGQAQAAVQGPVGTDFKPLCS	3.37
FPSAGQAQAAVQGPVGTDFKPLLS	2.71
FPSAGQAQAAVQGPVGTDFKPLKS	3.48
FPSAGQAQAAVQGPVGTDFKPLHS	3.44
FPSAGQAQAAVQGYVGTDFKPLNS	3.44
FPSAGQAQAAVQGVVGTDFKPLNS	3.32
FPSAGQAQAAVQGFVGTDFKPLNS	2.55
FPSAGQAQAAVQGKVGTDFKPLNS	2.8
FPSAGQAQAAVQGNVGTDFKPLNS	3.68
FPSAGQAQAAVQGLVGTDFKPLNS	3.04
FPSAGQAQAAVQGWVGTDFKPLNS	1.97
FPSAGQAQAAVQGHVGTDFKPLNS	3.71
FPSAGQAQAAVQGTVGTDFKPLNS	3.3
FPSAGQAQAAVQGSVGTDFKPLNS	3.34

Variant	protein stability index
FPSAGQAQAAVQGMVGTDFKPLNS	3.22
FPSAGQAQAAVQGGVGTDFKPLNS	3.54
FPSAGQAQAAVQGQVGTDFKPLNS	3.62
FPSAGQAQAAVQGRVGTDFKPLNS	3.36
FPSAGQAQAAVQGIVGTDFKPLNS	2.98
FPSAGQAQAAVQGEVGTDFKPLNS	3.92
FPSAGQAQAAVQGPVGTDFEPLNS	3.98
FPSAGQAQAAVQGPVGTDFDPLNS	4.07
FPSAGQAQAAVQGPVGTDFQPLNS	3.47
FPSAGQAQAAVQGPVGTDFFPLNS	2.35
FPSAGQAQAAVQGPVGTDFPPLNS	3.35
FPSAGQAQAAVQGPVGTDFCPLNS	3.85
FPSAGQAQAAVQGPVGTDFMPLNS	3.33
FPSAGQAQAAVQGPVGTDFIPLNS	3.34
FPSAGQAQAAVQGPVGTDFGPLNS	3.77
FPSAGQAQAAVQGPVGTDFSPLNS	3.34
FPSAGQAQAAVQGPVGTDFHPLNS	3.49
FPSAGQAQAAVQGPVGTDFTPLNS	3.59
FPSAGQAQAAVQGPVGTDFWPLNS	2.59
FPSAGQAQAAVQGPVGTDFYPLNS	2.79
FPSAGQAQAAVQGPVGTDFVPLNS	3.25
FPSAGQAQAAVQGPVGTDFLPLNS	3.2
FPSAGQAQAAVQGPVGTDFRPLNS	3.49
FPSAGQAQAAVQGPVGTDFNPLNS	3.72

Variant	protein stability index
FPSAGQAQAAVQGPVGTDFAPLNS	3.2
FPSAGQAQAAVQGPVGTDFKPLNA	3.36
FPSAGQAQAAVQGPVHTDFKPLNS	3.52
FPSAGQAQAAVQGPVPTDFKPLNS	3.42
FPSAGQAQAAVQGPVDTDFKPLNS	3.75
FPSAGQAQAAVQGPVYTDFKPLNS	2.9
FPSAGQAQAAVQGPVCTDFKPLNS	3.37
FPSAGQAQAAVQGPVVTDFKPLNS	3.25
FPSAGQAQAAVQGPVITDFKPLNS	3.27
FPSAGQAQAAVQGPVRTDFKPLNS	3.42
FPSAGQAQAAVQGPVFTDFKPLNS	3.17
FPSAGQAQAAVQGPVWTDFKPLNS	2.3
FPSAGQAQAAVQGPVSTDFKPLNS	3.48
FPSAGQAQAAVQGPVNTDFKPLNS	3.65
FPSAGQAQAAVQGPVTTDFKPLNS	3.64
FPSAGQAQAAVQGPVKTDFKPLNS	3.12
FPSAGQAQAAVQGPVMTDFKPLNS	3.04
FPSAGQAQAAVQGPVQTDFKPLNS	3.93
FPSAGQAQAAVQGPVETDFKPLNS	3.94
FPSAGQAQAAVQGPVLTDFKPLNS	3.21
FPSAGQAQAAVQGPVATDFKPLNS	3.13
FPSAGQAQAAVQGPAGTDFKPLNS	3.62
